The values that follow come from patent US20220251152A1, “COMPOSITIONS AND METHODS FOR SELECTIVE PROTEIN DEGRADATION” (Novartis AG, priority 2019, published 2022).

For this assay, the target named is T1, IKZF3 136-180 and 236-249-tagged avian myelocytomatosis viral oncogene (MYC) homolog (Homo sapiens, UniProt Q96SW2+Q9UKT9, DEL181-196/S197T).
T1 construct: expressed in transfected cells; host or cells: HEK293T
The experiment in a line: Western blot of IKZF3-tagged MYC in HEK293T cells. In kind it is cell-based. The conditions noted are these: tag fused to N-terminus of MYC; lenalidomide 4 hours. A general note: In western blotting, separated proteins are transferred to a membrane and probed.

T1 sequence (Q96SW2 whole entry, stated change not applied, one chain of several): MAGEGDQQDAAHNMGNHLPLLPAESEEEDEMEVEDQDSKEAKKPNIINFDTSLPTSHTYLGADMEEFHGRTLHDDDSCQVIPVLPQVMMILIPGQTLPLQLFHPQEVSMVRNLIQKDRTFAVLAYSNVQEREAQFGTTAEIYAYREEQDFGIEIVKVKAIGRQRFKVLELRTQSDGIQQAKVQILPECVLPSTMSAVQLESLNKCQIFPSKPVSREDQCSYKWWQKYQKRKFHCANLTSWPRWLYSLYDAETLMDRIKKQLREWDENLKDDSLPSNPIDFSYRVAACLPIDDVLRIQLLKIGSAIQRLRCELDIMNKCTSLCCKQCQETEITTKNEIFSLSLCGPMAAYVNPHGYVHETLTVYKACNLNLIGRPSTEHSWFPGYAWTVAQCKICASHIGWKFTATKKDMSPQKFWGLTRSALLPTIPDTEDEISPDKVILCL

Consider “IKZF3 136-180 and 236-249: IKZF3-based degradation tag with amino acid residues 136-180 and 236-249 of human IKZF3, SEQ ID NO: 3 (HKRSHTGERPFQCNQCGASFTQKGNLLRHIKLHTGEKPFKCHLCNTASAEARHIKAEMG; source: /note="Description of Unknown: IKZF3 sequence")”, for which the “ability of the tag to mediate lenalidomide-dependent degradation of MYC” value is reported as “mediated the lenalidomide-dependent degradation of tagged MYC”.
